From patent US20260263521A1, “ANTI-CD200R1 ANTIBODY AND USE THEREOF” (AIMED BIO INC., priority 2023, published 2026)

What was measured:
human CD200R1 = target: T1, human CD200R1 (Homo sapiens, UniProt Q8TD46); assay: SPR binding kinetics, human CD200R1; conditions: hCD200R1-his captured on anti-His CM5 chip, 1:1 Langmuir fit
T1 sequence (Q8TD46 25-348): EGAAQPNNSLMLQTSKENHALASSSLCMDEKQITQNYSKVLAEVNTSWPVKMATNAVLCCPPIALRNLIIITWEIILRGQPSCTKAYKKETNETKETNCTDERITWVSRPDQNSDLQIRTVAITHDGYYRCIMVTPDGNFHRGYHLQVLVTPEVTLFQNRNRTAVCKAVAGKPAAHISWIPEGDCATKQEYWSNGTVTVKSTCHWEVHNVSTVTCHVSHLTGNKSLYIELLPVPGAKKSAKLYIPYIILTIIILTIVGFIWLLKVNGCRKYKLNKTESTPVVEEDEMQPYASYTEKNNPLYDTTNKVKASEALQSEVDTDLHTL
Description: (§1) The CD200R1-specific binding ability of the antibodies (P001009 wt, P001009 v1, P001009 v2, P001009 v3, P001009 v4) selected in Example 14 was analyzed using surface plasma resonance (SPR). For the experiment, 30 μg/mL of an anti-histidine antibody was conjugated to a CM5 biacore chip via an amine bond while allowing to flow at 10 μl/min (10,000 RU). Then, 0.25 μg/mL of human or cynomolgus CD200R1 with dual His-tags was captured onto the completed chip for 60 seconds, and the binding ability of each antibody was analyzed. All experiments were performed by association of antibodies for 120 seconds and dissociation of antibodies for 600 seconds. The resulting graphs were fitted using a 1:1 Langmuir binding kinetic model (FIG. 16), and the kinetics of each antibody were calculated.

[1] = test system: IL-6 in U937-CD200R1 cells; assay: IL-6 suppression in LPS-treated U937-CD200R1 cells (AlphaLISA); format: cell-based, human; conditions: for IL-6: LPS-treated U937-CD200R1 cells, 24 h
Description: (§2) To determine the binding ability of the candidates to U937-CD200R1-overexpressing cell lines and verify the efficacy thereof, the anti-inflammatory effect of anti-CD200R1 antibodies was analyzed. First, 5×10^6 U937-CD200R1 cells were added to 12 ml of medium, treated with 30 ng/ml of Phorbol 12-myristate 13-acetate (Sigma Aldrich, #P1585), and reacted at 37° C. in 5% CO2 for 24 hours. After reaction, the medium was replaced with RPMI 1640 medium containing only 10% heat-inactivated FBS, and 5×10^6 cells were maintained at 37° C. in 5% CO2 for 24 hours.
(§3) Cells were seeded on duplicate onto 96-well round-bottom plates (SPL, #34296) at 1×10^5 cells/50 μl/well. P001009 WT, P001009v1, and the previously published CD200R antibody LY3454738 (US 2020/0087395, I-4P, Eli Lilly) as a positive control were used in this experiment. The drug was serially diluted 10-fold from a maximum concentration of 100 nM and treated to the cells at concentrations of 10 nM, 1 nM, […], respectively. Additional cells were treated with 100 nM of hIgG4 kappa isotype control (Crownvivo, #C0004) as a negative control. Untreated cells were seeded in the same amount of medium (RPMI 1640 containing 10% heat-inactivated FBS) and incubated at 37° C., 5% CO2 for 1 hour. To induce an inflammatory response in drug-treated cells, each well was treated with 10 μl of lipopolysaccharide from Salmonella typhosa (Sigma Aldrich, #L7895) at a concentration of 1 μg/ml. One well was left untreated to assess the induction of inflammatory cytokines. After thorough mixing, the cells were incubated at 37° C. and 5% CO2 for 24 hours.
(§4) After centrifugation at 1100 g for 2 minutes, images of the pellets before and after LPS treatment were captured using a microscope (Carl Zeiss, AXIO VERT.A1). After LPS treatment, the pellet appeared as scattered debris (FIG. 18B) rather than uniform spheroids (FIG. 18A). This was observed under a microscope. The supernatant was collected and analyzed for inflammatory cytokines such as TNF-α and IL-6 using an EnVision® multimode plate reader (PerkinElmer). A bead-based cytokine assay was performed using the AlphaLISA immunoassay on the EnVision® instrument. TNF-α(human) AlphaLISA Detection Kit, 500 assay points (PerkinElmer, #AL208C) was used for TNF-α, and the IL-6 (human) AlphaLISA Detection Kit, 500 assay points (PerkinElmer, #AL223C) was used for IL-6. Cytokine levels were determined depending on the concentration of each antibody.

cynomolgus CD200R1 = assay: SPR binding kinetics, cynomolgus CD200R1; conditions: cynomolgus CD200R1-his captured on anti-His CM5 chip, 1:1 Langmuir fit
Description: as §1

[2] = test system: TNF-α in U937-CD200R1 cells; assay: TNF-α suppression in LPS-treated U937-CD200R1 cells (AlphaLISA); format: cell-based, human; conditions: for TNF-α: LPS-treated U937-CD200R1 cells, 24 h
Description: as §2, §3, §4

[3] = low nanomolar (nM) drug concentrations

| Molecule | Ka (human CD200R1) [M⁻¹ s⁻¹] | IL-6 ([1]; log [Ab] (M) −7) [pg/mL] | IL-6 ([1]; log [Ab] (M) −8) [pg/mL] | IL-6 ([1]; log [Ab] (M) −9) [pg/mL] | IL-6 ([1]; log [Ab] (M) −10) [pg/mL] | IL-6 ([1]; log [Ab] (M) −11) [pg/mL] | IL-6 ([1]; log [Ab] (M) −12) [pg/mL] | Ka (cynomolgus CD200R1) [M⁻¹ s⁻¹] | TNF-α ([2]; log [Ab] (M) −7) [pg/mL] | TNF-α ([2]; log [Ab] (M) −8) [pg/mL] | TNF-α ([2]; log [Ab] (M) −9) [pg/mL] | TNF-α ([2]; log [Ab] (M) −10) [pg/mL] | TNF-α ([2]; log [Ab] (M) −11) [pg/mL] | TNF-α ([2]; log [Ab] (M) −12) [pg/mL] | IL-6 level [1, 3] | TNF-α level [2, 3] |
| --- | --- | --- | --- | --- | --- | --- | --- | --- | --- | --- | --- | --- | --- | --- | --- | --- |
| P001009: phage display anti-CD200R1 clone; VH SEQ ID NO: 79, VL SEQ ID NO: 94 (antibody, V domains shown) VH: EVQLLESGGGLVQPGGSLRLSCAASGFTFSSYDMSWVRQAPGKGLEWVSWISHGGGSIYYADSVKGRFTISRDNSKNTLYLQMNSLRAEDTAVYYCARDAPAYSAPLFDYWGQGTLVTVSS VL: QSVLTQPPSASGTPGQRVTISCSGSSSNIGNNAVNWYQQLPGTAPKLLIYYDSNRPSGVPDRFSGSKSGTSASLAISGLRSEDEADYYCAAWDDSLSGYVFGGGTKLTVL | 2.81e+06 | 231.7 ± 24.1 | 401.5 ± 9.6 | 1245.6 ± 49.9 | 3398.1 ± 325.5 | 3751.0 ± 144.5 | 4512.7 ± 74.1 | 5.63e+06 | 619.6 ± 12.3 | 1259.1 ± 29.9 | 2035.8 ± 108.9 | 4148.8 ± 208.7 | 5038.4 ± 7.7 | 5128.6 ± 667.6 |  |  |
| P001009v1: P001009 variant, LC S52 and LC S94 substituted with K and R; VH SEQ ID NO: 79 (antibody, V domains shown) VH: EVQLLESGGGLVQPGGSLRLSCAASGFTFSSYDMSWVRQAPGKGLEWVSWISHGGGSIYYADSVKGRFTISRDNSKNTLYLQMNSLRAEDTAVYYCARDAPAYSAPLFDYWGQGTLVTVSS VL: QSVLTQPPSASGTPGQRVTISCSGSSSNIGNNAVNWYQQLPGTAPKLLIYYDKNRPSGVPDRFSGSKSGTSASLAISGLRSEDEADYYCAAWDDRLSGYVFGGGTKLTVL | 4.77e+06 | 153.7 ± 8.8 | 165.1 ± 8.4 | 454.2 ± 45 | 2439 ± 56.8 | 3517.7 ± 166.3 | 4730.2 ± 99.8 | 5.23e+06 | 146.7 ± 23.8 | 609.5 ± 25.6 | 1039.8 ± 54.7 | 3352.5 ± 189.8 | 4753.2 ± 96.1 | 4082.1 ± 964.6 | maintained low inflammatory cytokine levels | maintained low inflammatory cytokine levels |
